From paper PMC9583166 (Frontiers in Cell and Developmental Biology, 2022)
One block for each binder: values may come before it.

What was measured:
Experiment in all cases: fluorescence polarisation; increasing amounts of SIN1 protein titrated to 1 µM mGppNHp-bound GTPase; 21°C; 30 mM Tris/HCl pH 7.5, 150 mM NaCl, 5 mM MgCl2, 3 mM dithiothreitol; quadratic ligand binding equation
Conditions in all cases: both partners purified
RIT1 [1] = biological target: T1, RIT1 ( (the printed accession is a …, UniProt Q92963 1-219))
T1 construct: RIT1, full length gene; Loaded with mant-GppNHp for fluorescence polarisation
T1 sequence (Q92963 whole entry): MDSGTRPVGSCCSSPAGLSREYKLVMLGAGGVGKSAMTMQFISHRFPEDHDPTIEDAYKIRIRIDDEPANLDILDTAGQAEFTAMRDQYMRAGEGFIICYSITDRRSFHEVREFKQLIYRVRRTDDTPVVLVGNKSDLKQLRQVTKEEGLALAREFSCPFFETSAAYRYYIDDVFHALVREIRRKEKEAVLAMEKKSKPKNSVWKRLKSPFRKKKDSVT

KRAS4A [2] = biological target: T2, KRAS4A ( (the printed accession is a …, UniProt P01116-1 1-189))
T2 construct: KRAS isoform 4A, full length gene; Loaded with mant-GppNHp for fluorescence polarisation; A farnesylated KRAS4A from insect cells was used only in liposome flotation

TC21 = biological target: T3, TC21 ( (the printed accession is a …, UniProt P62070 1-204))
T3 construct: RRAS2 (TC21), full length gene; Loaded with mant-GppNHp for fluorescence polarisation; also called RRAS2
T3 sequence (looked up): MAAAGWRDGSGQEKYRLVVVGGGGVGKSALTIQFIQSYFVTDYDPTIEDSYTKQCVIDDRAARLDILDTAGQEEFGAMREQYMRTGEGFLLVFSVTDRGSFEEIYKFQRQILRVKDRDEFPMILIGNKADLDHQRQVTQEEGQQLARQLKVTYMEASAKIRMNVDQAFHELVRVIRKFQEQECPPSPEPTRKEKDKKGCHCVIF

RHEB = biological target: T4, RHEB ( (the printed accession is a …, UniProt Q15382 1-184))
T4 construct: RHEB, full length gene; Loaded with mant-GppNHp for fluorescence polarisation
T4 sequence (Q15382 whole entry): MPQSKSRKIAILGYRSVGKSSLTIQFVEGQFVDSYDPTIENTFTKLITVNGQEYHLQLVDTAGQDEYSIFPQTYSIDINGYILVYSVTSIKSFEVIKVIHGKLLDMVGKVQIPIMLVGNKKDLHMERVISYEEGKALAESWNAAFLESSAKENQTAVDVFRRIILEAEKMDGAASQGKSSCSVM

RRAS = biological target: T5, RRAS ( (the printed accession is a …, UniProt P10301 1-218))
T5 construct: RRAS (RRAS1), full length gene; Loaded with mant-GppNHp for fluorescence polarisation; also called RRAS1
T5 sequence (looked up): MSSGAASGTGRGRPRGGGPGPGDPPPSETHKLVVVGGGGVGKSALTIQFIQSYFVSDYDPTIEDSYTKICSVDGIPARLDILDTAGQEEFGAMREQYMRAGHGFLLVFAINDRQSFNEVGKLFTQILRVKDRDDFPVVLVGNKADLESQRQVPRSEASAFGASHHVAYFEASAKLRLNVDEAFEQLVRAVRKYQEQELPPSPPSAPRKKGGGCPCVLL

KRAS4B = biological target: T6, KRAS4B ( (the printed accession is a …, UniProt P01116-2 1-188))
T6 construct: KRAS isoform 4B, full length gene; Loaded with mant-GppNHp for fluorescence polarisation

RIT1 [3] = biological target: T1, RIT1; remark: listed apart in the source
NRAS [4] = biological target: T7, NRAS ( (the printed accession is a …, UniProt P01111 1-189))
T7 construct: NRAS, full length gene; Loaded with mant-GppNHp for fluorescence polarisation
T7 sequence (P01111 whole entry): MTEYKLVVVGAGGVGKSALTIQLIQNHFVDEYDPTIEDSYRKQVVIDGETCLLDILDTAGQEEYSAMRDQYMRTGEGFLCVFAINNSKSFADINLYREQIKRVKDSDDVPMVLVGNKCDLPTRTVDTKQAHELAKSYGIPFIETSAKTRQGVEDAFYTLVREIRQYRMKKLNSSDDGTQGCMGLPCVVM

ERAS = biological target: T8, ERAS ( (the printed accession is a …, UniProt Q7Z444 1-233))
T8 construct: ERAS, full length gene; Loaded with mant-GppNHp for fluorescence polarisation
T8 sequence (looked up): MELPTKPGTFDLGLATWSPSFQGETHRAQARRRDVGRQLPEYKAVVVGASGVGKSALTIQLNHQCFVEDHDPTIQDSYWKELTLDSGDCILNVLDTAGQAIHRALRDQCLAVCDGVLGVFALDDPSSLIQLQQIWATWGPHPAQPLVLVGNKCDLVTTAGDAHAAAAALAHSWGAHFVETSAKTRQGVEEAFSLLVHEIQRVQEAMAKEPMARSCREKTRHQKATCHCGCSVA

KRAS4A [5] = biological target: T2, KRAS4A; remark: listed apart in the source
RAP2A = biological target: T9, RAP2A ( (the printed accession is a …, UniProt P10114 1-183))
T9 construct: RAP2A, full length gene; Loaded with mant-GppNHp for fluorescence polarisation
T9 sequence (looked up): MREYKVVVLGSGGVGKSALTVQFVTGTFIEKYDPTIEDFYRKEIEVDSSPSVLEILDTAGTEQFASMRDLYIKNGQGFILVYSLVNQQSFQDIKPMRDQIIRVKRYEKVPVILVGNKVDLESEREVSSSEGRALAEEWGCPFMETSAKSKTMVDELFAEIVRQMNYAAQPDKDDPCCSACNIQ

RALA = biological target: T10, RALA ( (the printed accession is a …, UniProt P11233 1-206))
T10 construct: RALA, full length gene; Loaded with mant-GppNHp for fluorescence polarisation
T10 sequence (looked up): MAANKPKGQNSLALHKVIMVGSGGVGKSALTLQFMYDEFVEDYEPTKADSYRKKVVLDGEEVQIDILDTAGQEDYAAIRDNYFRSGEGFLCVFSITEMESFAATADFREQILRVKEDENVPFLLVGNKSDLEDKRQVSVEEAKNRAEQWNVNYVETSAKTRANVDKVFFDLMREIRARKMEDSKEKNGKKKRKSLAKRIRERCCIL

RHOA = biological target: T11, RHOA ( (the printed accession is a …, UniProt P61586 1-193))
T11 construct: RHOA, full length gene; Loaded with mant-GppNHp for fluorescence polarisation
T11 sequence (P61586 whole entry): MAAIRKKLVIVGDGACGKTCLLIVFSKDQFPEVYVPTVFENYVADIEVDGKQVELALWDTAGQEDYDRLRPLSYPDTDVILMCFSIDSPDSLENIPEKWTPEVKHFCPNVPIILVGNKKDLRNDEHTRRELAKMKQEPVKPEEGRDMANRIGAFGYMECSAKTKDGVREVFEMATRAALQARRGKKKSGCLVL

HRAS = biological target: T12, HRAS ( (the printed accession is a …, UniProt P01112 1-189))
T12 construct: HRAS, full length gene; Loaded with mant-GppNHp (or mant-GDP) for fluorescence polarisation; also called HRAS•mGppNHp; HRAS•mGDP
T12 sequence (P01112 whole entry): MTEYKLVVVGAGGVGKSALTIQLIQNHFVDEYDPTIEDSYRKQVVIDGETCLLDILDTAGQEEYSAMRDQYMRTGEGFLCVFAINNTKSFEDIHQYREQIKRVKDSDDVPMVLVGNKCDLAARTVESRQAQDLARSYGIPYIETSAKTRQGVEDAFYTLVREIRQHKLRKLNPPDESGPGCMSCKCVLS

KRAS4A [6] = biological target: T2, KRAS4A; remark: listed apart in the source
NRAS [7] = biological target: T7, NRAS; remark: listed apart in the source

- Kd (RIT1 [1]): 112 µM
- Kd (KRAS4A [2]): 35 µM
- Kd (TC21): 878 µM
- Kd (RHEB): 358 µM
- Kd (RRAS): 123 µM
- Kd (KRAS4B): 33 µM
- Kd (RIT1 [3]): 123 µM
- Kd (NRAS [4]): 31 µM
- Kd (ERAS): 171 µM
- Kd (KRAS4A [5]): 34 µM
- Kd (RAP2A): 483 µM
- Kd (RALA): 331 µM
- Kd (RHOA): 535 µM
B1: SIN1-RBD (domain or fragment, UniProt Q9BPZ7 266-373, looked up)
chain: EKYSSPGLTSKESLFVRINAAHGFSLIQVDNTKVTMKEILLKAVKRRKGSQKVSGPQYRLEKQSEPNVAVDLDSTLESQSAWEFCLVRENSSRADGVFEEDSQIDIAT
notes: numbers count on isoform 1 (full length); As used in fluorescence polarisation; Limits: 266-373 in the methods, 279-353 in the results; also called SIN1-RBD^WT

- Kd (HRAS): 461 µM
- Kd (KRAS4A [6]): 952 µM
B2: SIN1-RBD^RR311-312EE (domain or fragment, UniProt Q9BPZ7 266-373, looked up)
chain: EKYSSPGLTSKESLFVRINAAHGFSLIQVDNTKVTMKEILLKAVKEEKGSQKVSGPQYRLEKQSEPNVAVDLDSTLESQSAWEFCLVRENSSRADGVFEEDSQIDIAT
notes: numbers count on isoform 1 (full length); also called SIN-RBD^RR311,312EE; SIN1^RR311-312EE

- Kd (KRAS4A [6]): 654 µM
B3: SIN1-RBD^FSL289-291REE (domain or fragment, UniProt Q9BPZ7 266-373, looked up)
chain: EKYSSPGLTSKESLFVRINAAHGREEIQVDNTKVTMKEILLKAVKRRKGSQKVSGPQYRLEKQSEPNVAVDLDSTLESQSAWEFCLVRENSSRADGVFEEDSQIDIAT
notes: numbers count on isoform 1 (full length); also called SIN-RBD^FSL289-291REE; SIN1^FSL289-291REE

- Kd (HRAS): 324 µM
- Kd (NRAS [7]): 166 µM
- Kd (KRAS4A [6]): 256 µM
B4: SIN1-RBD^K307D (domain or fragment, UniProt Q9BPZ7 266-373, looked up)
chain: EKYSSPGLTSKESLFVRINAAHGFSLIQVDNTKVTMKEILLDAVKRRKGSQKVSGPQYRLEKQSEPNVAVDLDSTLESQSAWEFCLVRENSSRADGVFEEDSQIDIAT
notes: numbers count on isoform 1 (full length); also called SIN-RBD^K307D; SIN1^K307D
